This assay addresses BK α W176C (S2–S3 loop) in the pWTb background (mouse). Briefly: cross-linking.

Consider one substance from PMC4338161.

The substance “BK β1 subunit G12C (TM1 flank) in the pWT β1 background (from UniProt Q16558-1 1-191) (natural protein)” came in with an extent of cross-linking of 80%.
